For this assay, the target named is human CD122/CD132 on cells of human PBMCs (human) (UniProt P14784). Put plainly: cell-based or functional assay.
Chain of human CD122/CD132 on cells of human PBMCs (human) (P14784 27-551, chain 1 of 2): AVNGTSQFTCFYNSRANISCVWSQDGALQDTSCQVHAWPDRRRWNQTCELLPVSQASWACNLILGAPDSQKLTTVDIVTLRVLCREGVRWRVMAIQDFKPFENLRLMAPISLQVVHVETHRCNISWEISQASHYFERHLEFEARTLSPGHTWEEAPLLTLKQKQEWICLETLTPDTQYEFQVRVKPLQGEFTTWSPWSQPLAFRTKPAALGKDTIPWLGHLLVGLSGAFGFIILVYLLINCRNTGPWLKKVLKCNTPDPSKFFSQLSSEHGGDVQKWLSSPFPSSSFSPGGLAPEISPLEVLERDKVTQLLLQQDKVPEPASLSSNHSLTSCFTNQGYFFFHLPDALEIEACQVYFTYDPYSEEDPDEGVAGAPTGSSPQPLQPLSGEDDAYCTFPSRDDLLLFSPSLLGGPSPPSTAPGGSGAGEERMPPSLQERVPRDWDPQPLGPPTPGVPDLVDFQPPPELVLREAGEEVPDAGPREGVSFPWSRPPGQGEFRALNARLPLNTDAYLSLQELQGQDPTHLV
Chain of human CD122/CD132 on cells of human PBMCs (human) (P31785 23-369, chain 2 of 2, further chain): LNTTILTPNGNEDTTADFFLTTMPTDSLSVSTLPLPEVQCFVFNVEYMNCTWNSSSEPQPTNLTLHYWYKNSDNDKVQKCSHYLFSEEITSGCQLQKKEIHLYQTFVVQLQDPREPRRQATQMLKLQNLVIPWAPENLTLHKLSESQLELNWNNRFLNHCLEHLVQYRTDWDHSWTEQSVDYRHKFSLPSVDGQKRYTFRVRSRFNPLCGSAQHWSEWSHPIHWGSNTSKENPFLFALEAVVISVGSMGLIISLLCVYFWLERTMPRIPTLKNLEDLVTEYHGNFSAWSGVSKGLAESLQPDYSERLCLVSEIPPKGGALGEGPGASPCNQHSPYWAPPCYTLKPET

B1: Isotype control--IL15 M1 (protein, part only; not given: Isotype control antibody chains and linker, part only)
heavy, part: AWVNVISDLKKIEDLIQSMHIDATLYTESNVHPSCKVTAMKCFLLGLQRISLESGDASIHDTVENLIILANNSLSSNGNVTESGCKECEELEEKNIKEFLQSFVHIVQMFINTS
In the case of B1, the pSTAT5 EC50 on human CD8+cm T cells (hPBMC) came to 3.67 nM and the pSTAT5 EC50 on human NK cells (hPBMC) is 0.946 nM.

B2: Isotype control--IL15 M2 (protein, part only; not given: Isotype control antibody chains and linker, part only)
heavy, part: GWVNVISDLKKIEDLIQSMHIDATLYTESNVHPSCKVTAMKCFLLGLQRISLESGDASIHDTVQNLIILANNSLSSNGNVTESGCKECEELEEKNIKEFLQSFVHIVQMFINTS
B2: the pSTAT5 EC50 on human CD8+cm T cells (hPBMC) turned out to be 37.6 nM and the pSTAT5 EC50 on human NK cells (hPBMC) is 11.2 nM.

These data come from patent publication US20210324028A1.
